Literature values in article PMC5760685.

Biological target: CRHR1 (UniProt P34998)
Chain of UniProt P34998 (P34998 24-415): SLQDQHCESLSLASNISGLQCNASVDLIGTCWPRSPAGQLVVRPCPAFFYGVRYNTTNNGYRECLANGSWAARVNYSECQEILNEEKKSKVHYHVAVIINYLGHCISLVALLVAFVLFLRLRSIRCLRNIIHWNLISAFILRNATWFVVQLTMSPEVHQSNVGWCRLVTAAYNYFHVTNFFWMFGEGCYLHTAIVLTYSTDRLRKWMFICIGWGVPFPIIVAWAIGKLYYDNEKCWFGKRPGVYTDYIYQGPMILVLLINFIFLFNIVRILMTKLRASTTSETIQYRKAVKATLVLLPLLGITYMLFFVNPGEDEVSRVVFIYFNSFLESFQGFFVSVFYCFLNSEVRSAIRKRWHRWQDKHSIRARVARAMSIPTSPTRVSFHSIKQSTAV

**Q.** Which Kd does the source give for CRH (from UniProt P06850) here?
**A.** 3 nM
